Values quoted from earlier work as cited in publication PMC8062757.

Molecular target: Myostatin (Gallus gallus) (UniProt O42220)
Chain of UniProt O42220 (O42220 267-375): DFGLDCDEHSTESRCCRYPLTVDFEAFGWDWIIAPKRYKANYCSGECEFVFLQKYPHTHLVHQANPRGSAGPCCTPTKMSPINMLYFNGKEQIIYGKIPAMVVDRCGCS

Kd: 0.584 nM
Substance: Follistatin (from UniProt Q90844)
